One molecule from article PMC5384396 (Oncoimmunology, 2017) can be followed below.

Broadly, the stoichiometry N is the number of molecules, sites or subunits per partner or assembly.

Series [1] concerns the molecule itself.
The target in series [2] is T1, hGITR on hGITR-transfected Jurkat cells (human, UniProt Q9Y5U5 26-241).
T1 sequence: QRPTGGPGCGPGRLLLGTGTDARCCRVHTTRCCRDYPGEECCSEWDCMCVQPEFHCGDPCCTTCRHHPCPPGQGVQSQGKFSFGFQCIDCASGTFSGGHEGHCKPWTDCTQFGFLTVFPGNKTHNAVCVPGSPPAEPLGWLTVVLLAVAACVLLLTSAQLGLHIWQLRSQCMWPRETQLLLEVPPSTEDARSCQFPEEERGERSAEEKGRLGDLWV
The series can be described thus: cell-based or functional assay.

B1: hGITRL FP with the yeast GCN4 pII trimerization domain (Fc fusion)
chain: not shown
With B1, the “stoichiometry N” value in series [1] worked out at 6. Further, in series [2], the “NFκB-luciferase reporter in hGITR-transfected Jurkat cells, agonism EC50” value was 0.89 nM.
